Measured values as given in the RNAGym collection of RNA variant scans (doi:10.7554/elife.90254).

B1: OR4K15 (parent)
chain: GUUAACGGUCAUAGGCCAUGGAAACUAGGAGCACCAUUUCGCUGCCAGUGAAGAAAUGAACAAAGAAAAUCUGGGCCAGGCAGGCAUCAAAAGAAAUAGUCUUGCGCUCAACCAGAAAGUCUGUAAUCAUUUUAAGGGUA

Variants of: B1
Experiment: self-cleavage, relative activity (ratio to wild type); higher = more cleavage; in vitro, sequencing; the parent is a self-cleaving ribozyme

Variant | self-cleavage
A55U A82U | 0.28
U2C U49C | 1.34
A62G A95G | 2.2
U38C U124A | 0.81
U87A U131C | 1.67
U57G A94G | 1.41
A24C G104A | 0.01
A23G U57A | 0.53
A52G U127C | 0.95
A18G A98G | 0.59
G48A A129G | 1.14
U49C G50U | 2.22
G75A A114G | 0.04
A23G | 0.97
C40A A59U | 2
U2C U26C | 1.2
A47G U49C | 0.98
A36G A98U | 2.12
U39C A96U | 1.52
A33U C105U | 0.49
A78G A96G | 0.24
U49G U72A | 0.32
G73A U122C | 0.04
U43A G44A | 1.06

Variant | self-cleavage
A55G A98U | 1.21
U122C A135C | 0.54
A69G U130C | 0.5
A94U U122C | 2.05
U39C A111G | 0.02
U37A A69U | 1.92
G14U U38C | 0.66
U2G A63C | 0.7
A78C A110G | 0.13
U19A U43C | 1.77
A5G A95G | 1.27
A23G C121U | 2.12
A5G A63U | 1.35
A36U A110G | 0.21
A18C A95G | 2.19
U26C A52U | 0.88
A4G A125G | 0.55
A5C A33U | 2.21
A18U U87C | 1.41
A23G U108G | 0
C112A | 0.01
G138A A140U | 1.08
C34U C128A | 1.3
A59G A86G | 0.5

Variant | self-cleavage
A5U A111G | 0.06
A89G A135G | 1.68
A91U A118G | 0.94
G8A A98G | 1.78
A62G A135G | 2.19
A60G U130G | 1.18
U43A U133C | 2.13
A27G A82C | 0.1
C42U A51U | 1.45
U100C C105U | 0.33
U97A A117G | 2.09
A54G U133C | 1.88
U9C U57G | 1.07
U12C U108C | 0.03
A62G C105U | 0.14
G14A U19A | 0.91
A91G U102A | 0.67
C46U U132C | 1.97
A86G A92G | 1.07
C25U U49C | 1.45
U2G U130C | 0.3
G58A U139C | 0.57
U72A A129G | 0.08
U9A U43G | 1.18

Variant | self-cleavage
G14A A30G | 2.84
U57C A126G | 0.4
U57C U72A | 0.18
C88U A111G | 0.04
U43C C45U | 1.6
A47U A118C | 0.48
A86U A92G | 1.46
A5G U39A | 1.16
G53U C112U | 0.01
U103A G137A | 0.85
A56C A125C | 0.7
G79A A117G | 0.09
U102C G123C | 1.33
A13G A117G | 1.11
A62U A78G | 0.28
A90G A95G | 2.02
A60G U72C | 0.17
U70C C101G | 0.11
A78U A116G | 0.14
A51U A68G | 1.24
A64G U131A | 0.6
C34U U131C | 0.84
A66C C113A | 0.02
U49C A135C | 0.89

Variant | self-cleavage
C40U A118G | 1.21
A68U U127C | 0.82
G29A U130C | 1.7
A64C G75C | 0.21
A59U A68C | 1.35
A27G A114U | 0.16
A4G C105U | 0.14
U9A A111G | 0.03
A5U A63G | 1.2
A78G U100G | 0.35
A30G A134G | 0.98
A18G A134U | 1.88
U26A A56G | 1.7
G83U | 0.45
G7U G137U | 1.84
A68G A89G | 2.04
U2G A140G | 1.09
U39A A52U | 1.65
G80U U139A | 0.09
G7U U26C | 2.12
U102A G119A | 1.23
G74U U132C | 0.18
U2C G136A | 1.66
A52G U133C | 1.33

Variant | self-cleavage
A110G U131C | 0.08
A27G A90G | 1.41
A51G A90G | 1.29
A36G U133A | 2.28
A22G U108C | 0.03
U19A U70C | 1.06
U108A A111G | 0.01
G50A A64G | 1.22
U72C A92G | 0.21
G21A A126G | 1.09
U39A G48U | 1.24
A90G A135U | 0.39
U39A A86G | 1.76
A47U A82U | 0.17
A82U A111G | 0.02
U57G | 1.34
A96G U124C | 1.22
A63C G83U | 0.83
A66G G80C | 0.12
U122A U124A | 0.14
C16A U39A | 1.23
A5G G106C | 0.08
G7A U102C | 1.75
U72A A111G | 0.02

Variant | self-cleavage
A98U G115A | 0.1
A59C U103C | 0.57
A11G A117G | 1.19
U19A U102A | 0.97
A82C A86U | 0.13
A89U U132C | 1.64
A54C A116G | 0.17
A4G C88G | 1.46
A30U A126G | 1.03
A63G C109A | 0.55
U26C U37C | 0.95
U19A A92U | 2.13
A78U U124C | 0.26
A69G C121A | 2.02
U108A A116U | 0.02
A63G C107G | 0.01
U108A A126G | 0.01
A82U U103C | 0.03
U2G U12A | 1.45
G29A A92G | 1.16
A67G U120A | 1.38
A64G | 1.2
U57C A68U | 2.04
